Reference: article PMC10766783 (Life Science Alliance, 2024)
Like-named read-outs stand apart in the source and are kept apart here.

Columns and labels:
camrelizumab = experiment: BLI; Octet RED96; antibodies captured on anti-human Fc AHC2 tips, PD-1 proteins as analyte at different concentrations; Octet kinetics buffer; 1:1 binding model
pembrolizumab = experiment: as above
nivolumab = experiment: as above
cemiplimab = experiment: as above
[1] = target: non-fucosylated recombinant PD-1 (PD-1 NF) (human) (UniProt Q15116); experiment: ELISA; plate-based ligand blocking: plates coated with 5 ug/ml PD-1, PD-1 NF or PD-1 N58Q; antibodies 1 h at room temperature, washed, then 1 ug/ml PD-L1-Fc-biotin 2 h; streptavidin-HRP
[2] = target: T1, PD-1 on Jurkat-Lucia TCR-hPD-1 cells (Homo sapiens, UniProt Q15116); experiment: cell-based or functional assay
[3] = target: T2, recombinant PD-1 N58Q mutant (human, UniProt Q15116, N58Q); experiment: BLI; Octet RED96; antibodies captured on anti-human Fc AHC2 tips, PD-1 proteins as analyte at different concentrations; Octet kinetics buffer; 1:1 binding model; conditions: both partners purified
T2 construct: PD-1, human, UniProt Q15116, residues 24-167 of the extracellular portion, N58Q; source: Expi293, transiently transfected, purified (Ni Sepharose Excel)

[4] = target: T3, chimeric receptor with the extracellular and transmembrane domains of PD-1 and intracellular GFP, on CHO-K1 … (Homo sapiens, UniProt Q15116, N-glycans without core fucose (Fut8 KO host)); experiment: flow cytometry on cells; antibodies added to CHO-K1 or CHO-K1 Fut8 KO cells transfected with PD-1 (extracellular and transmembrane domains)-GFP, 30 min on ice; binding as percentage of PD-1 expression in GFP-positive cells; four-parameter logistic fit; conditions: one partner purified
T3 construct: PD-1, human, extracellular and transmembrane domains; differs in the host and so in the glycans; also called cell surface PD-1 (CHO-K1 Fut8 KO); source: CHO-K1 Fut8 KO, transfected, on cells

[5] = target: T4, full-length PD-1 on CHO-K1 Fut8 KO cells (human, UniProt Q15116, N-glycans without core fucose (Fut8 KO host)); experiment: flow cytometry on cells; ligand blocking: PD-1-transfected CHO-K1 or CHO-K1 Fut8 KO cells incubated with antibodies 15 min on ice before PD-L1:SA-PE complexes; four-parameter logistic fit; conditions: one partner purified
T4 construct: PD-1, human, full length, on transfected cells; also called PD-1 expressed in CHO-K1 Fut8 KO; Fut8-deficient cells; source: CHO-K1 Fut8 KO, transfected, on cells

[6] = target: T2, recombinant PD-1 N58Q mutant; experiment: ELISA; plate-based ligand blocking: plates coated with 5 ug/ml PD-1, PD-1 NF or PD-1 N58Q; antibodies 1 h at room temperature, washed, then 1 ug/ml PD-L1-Fc-biotin 2 h; streptavidin-HRP; conditions: both partners purified
[7] = target: T1, PD-1 on Jurkat-Lucia TCR-hPD-1 cells

T2 sequence (Q15116 24-167 N58Q): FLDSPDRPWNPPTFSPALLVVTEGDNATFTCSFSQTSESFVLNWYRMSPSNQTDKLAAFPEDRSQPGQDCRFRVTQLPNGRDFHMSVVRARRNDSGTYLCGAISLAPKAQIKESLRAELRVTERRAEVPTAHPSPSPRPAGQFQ
Sequence of non-fucosylated recombinant PD-1 (PD-1 NF) (Q15116 24-167): as the sequence (Q15116 24-167 N58Q) above, with Q35N counted along it
T3 sequence (Q15116 whole entry, looked up, stated change not applied, the tested form may be a part): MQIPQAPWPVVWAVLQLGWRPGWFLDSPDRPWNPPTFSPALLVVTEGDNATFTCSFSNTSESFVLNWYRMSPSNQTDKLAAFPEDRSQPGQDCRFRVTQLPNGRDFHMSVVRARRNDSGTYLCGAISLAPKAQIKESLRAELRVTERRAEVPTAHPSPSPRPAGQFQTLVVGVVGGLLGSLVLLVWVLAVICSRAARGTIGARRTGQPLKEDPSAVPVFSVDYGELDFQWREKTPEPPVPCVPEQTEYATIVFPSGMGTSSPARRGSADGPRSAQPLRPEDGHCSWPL
T4 sequence (Q15116 25-288): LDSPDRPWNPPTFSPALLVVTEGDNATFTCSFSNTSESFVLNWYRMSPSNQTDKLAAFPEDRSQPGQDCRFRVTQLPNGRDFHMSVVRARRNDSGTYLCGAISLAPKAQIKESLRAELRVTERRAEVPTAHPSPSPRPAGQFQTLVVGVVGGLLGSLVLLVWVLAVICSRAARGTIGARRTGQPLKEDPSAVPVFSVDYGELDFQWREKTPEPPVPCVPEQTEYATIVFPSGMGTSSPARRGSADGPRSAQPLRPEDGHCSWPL
T1 sequence (Q15116 25-288): as above
Sequence of recombinant PD-1 (extracellular portion of human PD-1, residues 24-167) (Q15116 24-167): as the sequence (Q15116 24-167 N58Q) above, with Q35N counted along it
Sequence of non-fucosylated recombinant PD-1 (PD-1 NF) (human) (Q15116 24-167): as the sequence (Q15116 24-167 N58Q) above, with Q35N counted along it
Sequence of nivolumab (heavy, as listed by the source, chain 1 of 2): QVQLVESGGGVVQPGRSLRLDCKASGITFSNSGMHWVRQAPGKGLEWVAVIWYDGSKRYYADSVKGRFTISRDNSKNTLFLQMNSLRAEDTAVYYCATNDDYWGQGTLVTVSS
Sequence of nivolumab (light, as listed by the source, chain 2 of 2): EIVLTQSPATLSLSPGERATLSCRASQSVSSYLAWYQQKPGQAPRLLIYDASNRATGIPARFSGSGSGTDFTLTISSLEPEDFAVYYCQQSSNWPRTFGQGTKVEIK
Sequence of pembrolizumab (heavy, as listed by the source, chain 1 of 2): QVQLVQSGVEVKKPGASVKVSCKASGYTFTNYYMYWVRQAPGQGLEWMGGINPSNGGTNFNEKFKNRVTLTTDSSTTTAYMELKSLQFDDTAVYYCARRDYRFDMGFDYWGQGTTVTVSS
Sequence of pembrolizumab (light, as listed by the source, chain 2 of 2): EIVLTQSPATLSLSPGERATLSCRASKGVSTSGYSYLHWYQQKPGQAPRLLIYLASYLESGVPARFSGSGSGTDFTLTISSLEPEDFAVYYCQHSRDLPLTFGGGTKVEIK

Molecule	Kd (camrelizumab) [nM]	Kd (pembrolizumab) [nM]	Kd (nivolumab) [nM]	Kd (cemiplimab) [nM]	IC50 [1] [nM]	PD-1/PD-L1 reporter assay (Jurkat-Lucia TCR-hPD-1 with Raji-APC-hPD-L1, luciferase): blockade of PD-1:PD-L1, fold change of IC50, Jurkat cells pretreated with the fucose inhibitor against untreated [2] [fold]	Kd [3] [nM]	fold change in EC50 (CHO-K1 Fut8 KO against wild-type CHO-K1) [4] [fold]	IC50 [5] [nM]	IC50 [6] [nM]	PD-1/PD-L1 reporter assay (Jurkat-Lucia TCR-hPD-1 with Raji-APC-hPD-L1, luciferase): blockade of PD-1:PD-L1, fold change of IC50, Jurkat cells pretreated with the fucose inhibitor against untreated [7] [fold]
non-fucosylated recombinant PD-1 (PD-1 NF) (from UniProt Q15116 24-167) (domain or fragment)	380	3.67	20.8	87.1							
recombinant PD-1 (extracellular portion of human PD-1, residues 24-167) (from UniProt Q15116 24-167) (domain or fragment)	3.41			2.95							
camrelizumab (antibody, V domains shown, Whole therapeutic anti-human PD-1 antibody; a human IgG4 isotype was the control and anti-human IgG4 or anti-human IgG the detection reagent; The PDB entry may hold only the variable part; source: bought: Selleck Chemicals) VH: EVQLVESGGGLVQPGGSLRLSCAASGFTFSSYMMSWVRQAPGKGLEWVATISGGGANTYYPDSVKGRFTISRDNAKNSLYLQMNSLRAEDTAVYYCARQLYYFDYWGQGTTVTVSS VL: DIQMTQSPSSLSASVGDRVTITCLASQTIGTWLTWYQQKPGKAPKLLIYTATSLADGVPSRFSGSGSGTDFTLTISSLQPEDFATYYCQQVYSIPWTFGGGTKVEIK					1.5	2.8	449	3	5.6	18	
cemiplimab (antibody, V domains shown, Whole therapeutic anti-human PD-1 antibody; The PDB entry may hold only the variable part; source: bought: Selleck Chemicals) VH: EVQLLESGGVLVQPGGSLRLSCAASGFTFSNFGMTWVRQAPGKGLEWVSGISGGGRDTYFADSVKGRFTISRDNSKNTLYLQMNSLKGEDTAVYYCVKWGNIYFDYWGQGTLVTVSS VL: DIQMTQSPSSLSASVGDSITITCRASLSINTFLNWYQQKPGKAPNLLIYAASSLHGGVPSRFSGSGSGTDFTLTIRTLQPEDFATYYCQQSSNTPFTFGPGTVVDFR					0.6		260	1.3	2.6	1.4	2.4
